One molecule from patent US20240226163A1 (Regeneron, published 2024) can be followed below.

Common to all, as to assay: flow cytometry, peptide-pulsed T2 cells
Assay [1] deals with T1, HLA-A*02:01 presenting PLEKHH2 790-798 peptide (…) (human).
T1 construct: On peptide-pulsed T2 cells; also called T2 Pulsed PLEKHH2 790-798

For assay [2], the target named is T2, HLA-A*02:01 presenting SHTN1 198-206 peptide (…) (human).
T2 construct: On peptide-pulsed T2 cells; also called T2 Pulsed SHTN1 198-206

For assay [3], the target named is T1, HLA-A*02:01 presenting PLEKHH2 790-798 …. This is another data set of the same source.
The target of assay [4] is T3, HLA-A*02:01 presenting PCDHGC3 337-345 peptide (…) (human).
T3 construct: On peptide-pulsed T2 cells; also called T2 Pulsed PCDHGC3 337-345

Assay [5] concerns the target T4, HLA-A*02:01 presenting TEP1 2156-2164 peptide (…) (human).
T4 construct: On peptide-pulsed T2 cells; also called T2 Pulsed TEP1 2156-2164

Assay [6] has as its target T5, HLA-A*02:01 presenting FN1 2182-2190 peptide (…) (human).
T5 construct: On peptide-pulsed T2 cells; also called T2 Pulsed FN1 2182-2190

Assay [7] has as its target T6, HLA-A*02:01 presenting NBAS 2063-2071 peptide (…) (human).
T6 construct: On peptide-pulsed T2 cells; also called T2 Pulsed NBAS 2063-2071

Assay [8] concerns the target T7, HLA-A*02:01 presenting CARD8 170-178 peptide (…) (human).
T7 construct: On peptide-pulsed T2 cells; also called T2 Pulsed CARD8 170-178

The target of assay [9] is T8, HLA-A*02:01 presenting PSME2 145-153 peptide (…) (human).
T8 construct: On peptide-pulsed T2 cells; also called T2 Pulsed PSME2 145-153

Assay [10] concerns the target T9, HLA-A*02:01 presenting HEATR5A 1925-1933 peptide (…) (human).
T9 construct: On peptide-pulsed T2 cells

For assay [11], the target named is T10, HLA-A*02:01 presenting RABGAP1L 408-416 peptide (…) (human).
T10 construct: On peptide-pulsed T2 cells; also called T2 Pulsed RABGAP1L 408-416

Assay [12] concerns the target T11, HLA-A*02:01 presenting MRPL37 334-342 peptide (…) (human).
T11 construct: On peptide-pulsed T2 cells; also called T2 Pulsed MRPL37 334-342

Assay [13] addresses T12, HLA-A*02:01 presenting CNOT1 1965-1973 peptide (…) (human).
T12 construct: On peptide-pulsed T2 cells; also called T2 Pulsed CNOT1 1965-1973

Assay [14] addresses T13, HLA-A*02:01 presenting SMIM11A 4-12 peptide (…) (human).
T13 construct: On peptide-pulsed T2 cells; also called T2 Pulsed SMIM11A 4-12
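Wherever S/N ratio is given: ratio of peak mean fluorescence intensity across a 12-point threefold antibody dilution series to the MFI with secondary antibody only, live-gated cells by flow cytometry.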

B1: bsAb6043 (bispecific antibody, V domains shown)
VH 1: QVQLVESGGGLVKPGGSLRLSCAASGFTFSEYYLTWIRQAPGKGLDWIAYISSSGYNIYYADSVKDRFTISRDNGKNSLFLQMNNLRAEDTAVYFCAREGVTDGMDVWGQGTTVTVSS
VH 2: EVQLVESGGGLVQPGRSLRLSCAASGFTFDDYSMHWVRQAPGKGLEWVSGISWNSGSKGYADSVKGRFTISRDNAKNSLYLQMNSLRAEDTALYYCAKYGSGYGKFYHYGLDVWGQGTTVTVSS
VL: DIQMTQSPSSLSASVGDRVTITCRASQSIDTFLNWYQQKPGKVPKLLIYAASNLESGVPSRFSGSGSGTVFTLTISRLQPEDFATYYCQQSYSIPPITFGQGTRVEIK
notes: Only variable regions are tied to the bispecific; also called MAGE-A4×CD3 (7221G) bispecific antibody
With B1, the S/N ratio in [1] came to 1; in [2], 5. Besides, the binding result in assay [3], in assay [4], in assay [5], in assay [6], in assay [7] and in assay [8] was “no binding” each time. Moreover, the binding result in assay [9], in assay [10], in assay [11], in [12], in assay [13] and in [14] was “no binding” in each case.
